Reference: paper PMC11068555

Legend:
[1] = target: SHC014 S Foldon his (prefusion stabilized spike ectodomain) (sarbecovirus SHC014 (clade 1a) | bacteriophage T4); assay: native gel or EMSA
[2] = target: WIV1 S Foldon his (prefusion stabilized spike ectodomain) (sarbecovirus WIV1 (clade 1a) | bacteriophage T4); assay: native gel or EMSA

Row | Substance | stoichiometry N [1] | stoichiometry N [2]
1 | SHC014 S Foldon his (prefusion stabilized spike ectodomain) (domain or fragment) | 3 | –
2 | WIV1 S Foldon his (prefusion stabilized spike ectodomain) (domain or fragment) | – | 3
